Measured values taken from US20230302155A1, “COMPOSITIONS AND METHODS FOR IN VIVO GENERATION OF CAR EXPRESSING CELLS” (Novartis AG, priority 2020, published 2023).
Entries after “also recorded” stand apart in the source; their conditions may differ.

B1: #8: minor mature VEGF-C (103-227) with C137A mutation, SEQ ID NO: 735 (His) / 736 (protein)
chain: TEETIKFAAAHYNTEILKSIDNEWRKTQCMPREVAIDVGKEFGVATNTFFKPPCVSVYRCGGCCNSEGLQCMNTSTSYLSKTLFEITVPLSQGPKPVTISFANHTSCRCMSKLDVYRQVHSIIRR
B2: #7: minor mature VEGF-C (103-227), wild type, SEQ ID NO: 733 (His) / 734 (protein, listed as Homo sapiens)
chain: TEETIKFAAAHYNTEILKSIDNEWRKTQCMPREVCIDVGKEFGVATNTFFKPPCVSVYRCGGCCNSEGLQCMNTSTSYLSKTLFEITVPLSQGPKPVTISFANHTSCRCMSKLDVYRQVHSIIRR
B3: #9: major mature VEGF-C (112-227) with C137A mutation, SEQ ID NO: 737 (His) / 738 (protein)
chain: AHYNTEILKSIDNEWRKTQCMPREVAIDVGKEFGVATNTFFKPPCVSVYRCGGCCNSEGLQCMNTSTSYLSKTLFEITVPLSQGPKPVTISFANHTSCRCMSKLDVYRQVHSIIRR
B4: #2: major mature VEGF-C (112-227), wild type, SEQ ID NO: 731 (His) / 732 (protein, listed as Homo sapiens)
chain: AHYNTEILKSIDNEWRKTQCMPREVCIDVGKEFGVATNTFFKPPCVSVYRCGGCCNSEGLQCMNTSTSYLSKTLFEITVPLSQGPKPVTISFANHTSCRCMSKLDVYRQVHSIIRR

Legend:
EGFRvIII CARTs = assay: Cytokine production of EGFRvIII CARTs stimulated by ligand-presenting MSRs; assay type: cell-based; details: lipid-coated MSRs, multiplex cytokine analysis
Description: Briefly, liposomes primarily composed of POPC with 1 mol % PE-biotin were formed using a thin film rehydration method and extrusion through a 100 nm polycarbonate membrane. Hydroxyl functionalized MSRs were incubated with the liposomes to allow the formation of a supported lipid bilayer on the MSR surface (FIG. 6). To functionalize the MSRs with CD3 and CD28 agonistic antibodies, MSRs were washed several times with PBS, incubated with streptavidin, and then tethered with biotinylated CD3 and CD28 antibodies. For MSR-immobilization of EGFRvIII CAR-binding peptides, a biotinylated EGFRvIII CAR-binding peptide was used (FIG. 7).
After incubation with the desired ligands, MSRs were washed several times with PBS and resuspended in culture medium at various concentrations and incubated with T cells. […] Cytokine production was assessed using a multiplex cytokine analysis method (Mesoscale Delivery V-Plex).

[1] = test system: human dermal lymphatic endothelial cells (HDLECs); assay: HDLECs sprouting (tube formation) assay; assay type: cell-based; details: 600 μg of VEGF-C protein, overnight, phalloidin staining
Description: Human Dermal Lymphatic Endothelial Cells (HDLECs) were seeded (p0) and passaged at 75% confluence until p4 or enough cells were obtained for experiments. One ml was then aliquoted into Eppendorf tubes, treated with 600 μg of VEGF-C protein, and vortexed. Each treatment was added to warmed media in a 6 well plate and incubated overnight at 37 C (5% CO2). For imaging analysis cells were washed and then fixed with 3.7% formalin-0.05% Triton X-100 solution (fixing buffer), then washed and coated with 0.1% Triton X-100 solution (permeabilization buffer). After washing twice with PBS cells were coated with 0.05% Triton X-100 in 1% BSA solution (blocking buffer). DAPI and phalloidin staining was performed according to known protocols. After staining cells were washed twice with PBS and imaged.
An overview of the experimental setup of the in vitro sprouting assay on HDLECs to test the biological activity of VEGF-C variants is shown in FIG. 20A. HDLECs were first seeded (p0) and passaged at 75% confluence until p4 or enough cells were obtained for experiments. About 1 mL of the HDLECs was then aliquoted into Eppendorf tubes, treated with 600 μg of VEGF-C protein, and vortexed. Each treatment was added to warmed media in a 6 well plate and incubated overnight at 37 C (5% CO2). For imaging analysis, cells were washed and then fixed with 3.7% formalin-0.05% Triton X-100 solution (fixing buffer), then washed and coated with 0.1% Triton X-100 solution (permeabilization buffer). After washing twice with PBS, cells were coated with 0.05% Triton X-100 in 1% BSA solution (blocking buffer). DAPI and phalloidin staining was performed according to known protocols. After phalloidin staining, cells were washed twice with PBS, and imaged for tube formation.

[2] = test system: CD4+ T cells and CD8+ T cells; assay: Immune infiltration of mouse skin after cryogel delivery (flow cytometry); assay type: in vivo, C57/BL6 mice; details: skin on top of the cryogels
Description: (§1) Tissues were harvested from mice, weighted, and cut into very fine pieces with scissors. Samples were then enzymatically digested under constant stirring in of digestion media containing collagenase 4 and DNAse 1. Samples were then pipetted up and down. Following pipetting, digestion media containing collagenase D and DNAse 1 was added to the samples. Samples were pipetted up and down for 3 cycles. EDTA was added (5 mM) and cells were filtered through 70 μm filters and 40 uM mesh and resuspended in Fc blocking buffer. Cells were washed and stained for FACS analysis.
Cryogels (0.25 mg/ml laponite) containing 10 μg of different VEGF-C constructs were injected superficially into the dermis mice (N=5/group) at day 0. At day 14 mice were euthanized and the skin/cryogel (combined) were dissected for digestion and FACS analysis. Representative FACS plots of LECs (CD31^+, PDPN^+) are pre-gated on FSC-A/SSC-A, and CD45^− (FIG. 22). The results of FIG. 23 bear on the delivery of VEGF-C. Mice were injected with VEGF-C (N=12) or blank cryogels (N=10) synthesized as previously mentioned. Skin/gels from mice were harvested at timepoints day 7, 14, and 21, digested, and stained for FACS. LECs were gated on CD45^− CD31^+ PDPN^+. […]
In addition, the response of skin lymphatics to […] VEGF-C delivered by alginate cryogels was measured. […] The number of cells per mg of tissue were also quantified.

[3] = test system: lymphatic endothelial cells (LECs); assay: In vivo lymphangiogenesis in mouse skin after cryogel delivery (flow cytometry); set-up: species or system C57/BL6 mice; details: for in vivo lymphangiogenesis (LEC counts per mg of tissue): 10 μg VEGF-C in cryogel (0.25 mg/ml laponite), day 14
Description: as §1
Cryogels (0.25 mg/ml laponite) containing 10 μg of different VEGF-C constructs were injected superficially into the dermis mice (N=5/group) at day 0. At day 14 mice were euthanized and the skin/cryogel (combined) were dissected for digestion and FACS analysis. Representative FACS plots of LECs (CD31^+, PDPN^+) are pre-gated on FSC-A/SSC-A, and CD45^− (FIG. 22). The results of FIG. 23 bear on the delivery of VEGF-C. Mice were injected with VEGF-C (N=12) or blank cryogels (N=10) synthesized as previously mentioned. Skin/gels from mice were harvested at timepoints day 7, 14, and 21, digested, and stained for FACS. LECs were gated on CD45^− CD31^+ PDPN^+. BECs were gated on CD45^− CD31^+ PDPN^−. CD4 and CD8 T Cells were gated on CD45^+ CD11b^−CD11c^−Thy1^+.
First, cryogels (0.25 mg/ml laponite) containing 10 μg of different VEGF-C forms, including the dimeric forms of the major and minor mature forms that are wild-type (#2 and #7, respectively) and the major and minor mature forms that comprise the C137A mutation (#9 and #8, respectively), were injected superficially into the dermis of mice (N=5/group) at day 0. At day 14 mice were euthanized and the skin/cryogel (combined) were dissected for digestion and FACS analysis (FIG. 22A). Specifically, tissues were harvested from mice, weighted, and cut into very fine pieces with scissors. Samples were then enzymatically digested under constant stirring of digestion media containing collagenase 4 and DNAse 1. Samples were then pipetted up and down. Following pipetting, digestion media containing collagenase D and DNAse 1 was added to the samples. Samples were pipetted up and down for 3 cycles. EDTA was added (5 mM) and cells were filtered through 70 μm filters and 40 μM mesh and resuspended in Fc blocking buffer. Cells were washed and stained for FACS analysis.
In addition, the response of skin lymphatics to […] VEGF-C delivered by alginate cryogels was measured. […] Skin/gels from mice were harvested as described above, at timepoints day 7, 14, and 21, digested, and stained for FACS. LECs were gated on CD45^− CD31^+ PDPN^+. BECs were gated on CD45^− CD31^+ PDPN^−. […] The number of cells per mg of tissue were also quantified.

Row | Molecule | interferon gamma and IL-2 production (EGFRvIII CARTs) | sprouting of HDLECs (tube formation) [1] | in vivo lymphangiogenesis (LEC counts per mg of tissue) ([3]; skin) | other results
1 | free EGFRvIII CAR-binding peptide in solution: EGFRvIII CAR-binding peptide LEEKKGNYVVTDH (SEQ ID NO: 756) [reference compound] | no response | – | – | –
2 | EGFRvIII CAR-binding peptide bound to the surface of the MSRs: biotinylated peptide LEEKKGNYVVTDH (SEQ ID NO: 756) coupled via streptavidin to lipid-coated MSRs | produced interferon gamma and IL-2 | – | – | –
3 | B1 | – | better sprouting of HDLECs than the immature form | high in vivo lymphangiogenesis; also recorded: higher amounts of LECs compared to the dimers of the major and minor mature forms that are wild-type | day of peak T cell / immune infiltration after cryogel delivery [2]: 14 days; blood vascular endothelial cells (BECs, CD45−CD31+PDPN−) ([3]; skin, 14 days after cryogel delivery): not affected
4 | B2 | – | better sprouting of HDLECs than the immature form | – | time of peak lymphangiogenesis after cryogel delivery ([3]; 10 μg VEGF-C in alginate cryogel, subcutaneous): 14 days
5 | B3 | – | better sprouting of HDLECs than the immature form | high in vivo lymphangiogenesis; also recorded: higher amounts of LECs compared to the dimers of the major and minor mature forms that are wild-type | –
6 | B4 | – | better sprouting of HDLECs than the immature form | – | –
